Assay results from publication PMC6858323, “Multiple conformations facilitate PilT function in the type IV pilus” (Nature Communications, 2019).

How the values were obtained:
[1] = target: PilB from Geobacter metallireducens (PilB^Gm) (Geobacter metallireducens); assay: cryo-EM structure; PilB^Gm 0.6 mg/ml without added nucleotide, 4 °C; 2D class averages and 7.8 Å 3D map, CCOCCO conformation
[2] = target: PilT4 from Geobacter metallireducens (PilT^Gm) (Geobacter metallireducens GS-15); assay: crystal structure; PilT^Gm with 2 mM ATP and 2 mM MgCl2; 9% PEG4000, 100 mM MES pH 6, 200 mM MgCl2; 20 °C; 1.9 Å; CCCCCC conformation
[3] = target: PilT4 from Geobacter metallireducens (PilT^Gm) (Geobacter metallireducens GS-15); assay: cryo-EM structure; PilT^Gm 0.5 mg/ml incubated 10 min at 4 °C with 1 mM MgCl2 plus 1 mM ATP; 4.4 Å map, CCCCCC conformation; 2D class averages also with 1 mM ATP plus 0.1 or 1 mM ADP
[4] = target: PilT4 from Geobacter metallireducens (PilT^Gm) (Geobacter metallireducens GS-15); assay: crystal structure; PilT^Gm with 2 mM ANP and 2 mM MgCl2; 2% benzamidine-HCl, 100 mM HEPES-HCl pH 7.9, 200 mM ammonium acetate, 17.5% PEG3350; 20 °C; anisotropic 4.1, 6.7 and 4.0 Å; CCOCCO conformation
[5] = target: PilT4 from Geobacter metallireducens (PilT^Gm) (Geobacter metallireducens GS-15); assay: cryo-EM structure; PilT^Gm 0.5 mg/ml without added nucleotide, 4 °C; untilted 2D class averages and 40° tilted 3D maps (OCOCOC 4.0 Å, OOCOOC 4.1 Å); 2D class averages also with 1 mM MgCl2 plus 0.1 or 1 mM ADP
[6] = target: PilT4 from Geobacter metallireducens (PilT^Gm) (Geobacter metallireducens GS-15); assay: crystal structure; PilT^Gm without added nucleotide (partial-occupancy ADP, pH 7.1, 3.0 Å) or preincubated with Mg2+ and ATP and unbound nucleotide removed (full-occupancy ADP, pH 7.6); 11.5% PEG3350, 200 mM L-proline, 100 mM HEPES; 20 °C; OCOCOC conformation, pseudo-C3
[7] = target: reductively methylated PilT4 from Geobacter metallireducens (methylated PilT^Gm) (Geobacter metallireducens GS-15); assay: crystal structure; methylated PilT^Gm, no added nucleotide; vapor diffusion 20 °C; 200 mM ammonium sulfate, 100 mM Bis-Tris-HCl pH 6.5, 25% PEG3350; 3.3 Å; OCOCOC conformation

Substance: PilB from Geobacter metallireducens (PilB^Gm) (enzyme)
- stoichiometry N [1]: 6

Substance: PilT4 from Geobacter metallireducens (PilT^Gm) (enzyme)
- stoichiometry N [2]: 6
- stoichiometry N [3]: 6
- stoichiometry N [4]: 6
- stoichiometry N [5]: 6
- stoichiometry N [6]: 6

Substance: reductively methylated PilT4 from Geobacter metallireducens (methylated PilT^Gm) (enzyme)
- stoichiometry N [7]: 6
